Measured values taken from IntAct's records for PubMed 21645854.

B1: FAS-associated factor 1 (Homo sapiens), Q9UNN5-1 (parent)
chain: MASNMDREMILADFQACTGIENIDEAITLLEQNNWDLVAAINGVIPQENGILQSEYGGETIPGPAFNPASHPASAPTSSSSSAFRPVMPSRQIVERQPRMLDFRVEYRDRNVDVVLEDTCTVGEIKQILENELQIPVSKMLLKGWKTGDVEDSTVLKSLHLPKNNSLYVLTPDLPPPSSSSHAGALQESLNQNFMLIITHREVQREYNLNFSGSSTIQEVKRNVYDLTSIPVRHQLWEGWPTSATDDSMCLAESGLSYPCHRLTVGRRSSPAQTREQSEEQITDVHMVSDSDGDDFEDATEFGVDDGEVFGMASSALRKSPMMPENAENEGDALLQFTAEFSSRYGDCHPVFFIGSLEAAFQEAFYVKARDRKLLAIYLHHDESVLTNVFCSQMLCAESIVSYLSQNFITWAWDLTKDSNRARFLTMCNRHFGSVVAQTIRTQKTDQFPLFLIIMGKRSSNEVLNVIQGNTTVDELMMRLMAAMEIFTAQQQEDIKDEDEREARENVKREQDEAYRLSLEADRAKREAHEREMAEQFRLEQIRKEQEEEREAIRLSLEQALPPEPKEENAEPVSKLRIRTPSGEFLERRFLASNKLQIVFDFVASKGFPWDEYKLLSTFPRRDVTQLDPNKSLLEVKLFPQETLFLEAKE

Variants of: B1
Conditions: with tera_human VCP

Row | effect of a mutation on the interaction | Variant
1 | decreasing interaction | F619A
2 | decreasing interaction | P640N
3 | decreasing interaction | R579A
4 | decreasing interaction | P620N
5 | decreasing interaction | R621A
